# In paper PMC5410052:
# Key:
# [1] = biological target: human MMP-2 (gelatinase A) (human) (UniProt P08253)
# [2] = biological target: human MMP-1 (collagenase 1) (human) (UniProt P03956)
# [3] = biological target: catalytic domain of human MMP-14 (cdMMP-14) (human) (UniProt P50281)
# [4] = biological target: human MMP-7 (matrilysin) (human) (UniProt P09237)
# [5] = biological target: human MMP-2 (gelatinase A) (human) (UniProt P08253); assay: enzyme inhibition assay (quenched fluorescent peptide substrate); 60/60/250/500 nM MMP-1/-2/-7/-14cd incubated with 0.98-1000 nM (N-)TIMPs for 30 min at room temperature, then 1 uM M-2350 substrate; KI from the equation for slow tight-binding inhibitors
# [6] = biological target: human MMP-1 (collagenase 1) (human) (UniProt P03956); assay: as above
# [7] = biological target: catalytic domain of human MMP-14 (cdMMP-14) (human) (UniProt P50281); assay: as above
# [8] = biological target: human MMP-7 (matrilysin) (human) (UniProt P09237); assay: as above
# UniProt P09237, sequence (P09237 95-267): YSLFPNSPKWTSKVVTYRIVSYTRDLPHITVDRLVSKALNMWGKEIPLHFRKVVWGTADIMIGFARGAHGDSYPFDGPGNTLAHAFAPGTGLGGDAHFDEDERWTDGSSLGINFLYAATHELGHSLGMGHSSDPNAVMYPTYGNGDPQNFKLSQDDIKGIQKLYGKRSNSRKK
# UniProt P08253, sequence (P08253 110-660): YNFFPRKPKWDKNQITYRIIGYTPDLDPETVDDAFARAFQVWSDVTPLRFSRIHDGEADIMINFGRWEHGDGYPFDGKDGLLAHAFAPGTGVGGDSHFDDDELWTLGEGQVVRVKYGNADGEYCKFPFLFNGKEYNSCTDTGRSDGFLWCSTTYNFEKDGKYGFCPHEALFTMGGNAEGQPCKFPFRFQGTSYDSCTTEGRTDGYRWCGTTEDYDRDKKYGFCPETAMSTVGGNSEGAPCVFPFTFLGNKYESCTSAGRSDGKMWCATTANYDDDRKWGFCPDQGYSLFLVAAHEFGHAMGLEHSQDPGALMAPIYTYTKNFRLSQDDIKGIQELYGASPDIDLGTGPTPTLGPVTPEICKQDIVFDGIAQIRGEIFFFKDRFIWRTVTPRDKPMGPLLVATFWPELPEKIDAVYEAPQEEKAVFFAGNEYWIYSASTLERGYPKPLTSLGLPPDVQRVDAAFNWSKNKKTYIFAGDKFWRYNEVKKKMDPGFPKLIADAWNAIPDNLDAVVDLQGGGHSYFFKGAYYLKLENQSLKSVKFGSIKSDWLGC
# UniProt P03956, sequence (P03956 100-469): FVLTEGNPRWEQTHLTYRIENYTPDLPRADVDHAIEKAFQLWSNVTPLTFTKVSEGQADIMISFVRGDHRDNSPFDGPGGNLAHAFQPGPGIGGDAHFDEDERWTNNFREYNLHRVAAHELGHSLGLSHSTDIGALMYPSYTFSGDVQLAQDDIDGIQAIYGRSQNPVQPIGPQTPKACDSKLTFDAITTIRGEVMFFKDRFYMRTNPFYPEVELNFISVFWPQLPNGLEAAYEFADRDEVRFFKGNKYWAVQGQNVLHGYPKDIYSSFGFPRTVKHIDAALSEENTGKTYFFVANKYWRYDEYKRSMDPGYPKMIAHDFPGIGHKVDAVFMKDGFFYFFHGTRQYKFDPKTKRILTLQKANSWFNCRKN
IC50 of inhibition of MMP-2 cleavage of a quenched fluorescent peptide substrate [1],IC50 of inhibition of MMP-1 cleavage of a quenched fluorescent peptide substrate [2],IC50 of inhibition of cdMMP-14 cleavage of a quenched fluorescent peptide substrate [3],IC50 of inhibition of MMP-7 cleavage of a quenched fluorescent peptide substrate [4],Ki [5],Ki [6],Ki [7],Ki [8],Substance
6 nM,3 nM,72 nM,38 nM,0.8 nM,0.65 nM,3.96 nM,2.86 nM,N-terminal domain of human TIMP-2 (N-TIMP-2) (domain or fragment)
–,–,–,–,11 nM,7.21 nM,–,4.62 nM,N-terminal domain of human TIMP-1 (N-TIMP-1) (domain or fragment)
